Data set [1] addresses T1, MBP-WRKY48 (Arabidopsis thaliana (Col-0), UniProt Q9FGZ4 1-399). Briefly: EMSA; unphosphorylated; EMSA: 5x binding buffer (4% glycerol, 1 mM MgCl2, 0.5 mM EDTA, 0.5 mM DTT, 10 mM Tris-HCl pH 7.5), 1 ug poly-dIdC, BSA, 2.5 ug protein, ~20,000 cpm probe, room. The settings on record: protein: recombinant; tags: MBP (pMAL-C2); label: 32P 5' end label.
Data set [2] deals with T1, MBP-WRKY48. As to the kind of experiment: competition; unlabeled competitor vs labeled W-boxes; binding largely reduced; EMSA: 5x binding buffer (4% glycerol, 1 mM MgCl2, 0.5 mM EDTA, 0.5 mM DTT, 10 mM Tris-HCl pH 7.5), 1 ug poly-dIdC, BSA, 2.5 ug protein, ~20,000 cpm probe, room. As to conditions: protein: recombinant; tags: MBP (pMAL-C2); label: none.

Changes are numbered by the printed parent chain.

T1 sequence (Q9FGZ4 whole entry): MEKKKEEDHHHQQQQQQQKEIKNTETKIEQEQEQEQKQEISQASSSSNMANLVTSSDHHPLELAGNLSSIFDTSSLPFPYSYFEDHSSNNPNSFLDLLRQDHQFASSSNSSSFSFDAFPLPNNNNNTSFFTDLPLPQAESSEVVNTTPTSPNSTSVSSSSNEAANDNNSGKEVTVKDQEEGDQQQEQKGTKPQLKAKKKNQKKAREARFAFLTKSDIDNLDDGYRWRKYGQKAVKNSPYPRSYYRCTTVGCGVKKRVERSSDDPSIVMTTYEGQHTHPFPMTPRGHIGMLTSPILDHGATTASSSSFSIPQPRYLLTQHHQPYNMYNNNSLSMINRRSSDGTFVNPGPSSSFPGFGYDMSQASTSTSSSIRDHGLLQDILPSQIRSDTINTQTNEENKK

B1: W-boxes probe (four W-boxes of WRKY46 promoter) (dsDNA)
DNA 1: CTGTCAATTCTTTGACCCCAGTTGACGAATGTCAATT
DNA 2: AATTGACATTCGTCAACTGGGGTCAAAGAATTGACAG
With B1, the binding result with MBP-WRKY48 [1] is recorded as “binds”.

B2: unlabeled W-boxes oligonucleotide (specific competitor) (dsDNA)
DNA 1: B1 DNA 1
DNA 2: B1 DNA 2
On to B2, for which the binding result with MBP-WRKY48 [2] was “binds”.

B3: mW-boxes probe (mutated W-boxes) (dsDNA)
DNA 1: B1 DNA 1 with G3T, C16A, C26A, G31T
DNA 2: B1 DNA 2 with C7A, G12T, G22T, C35A
Regarding B3, in the data set with MBP-WRKY48 [1], the binding result is “no binding”.

These data come from PMC3561149, “Bifurcation of Arabidopsis NLR Immune Signaling via Ca2+-Dependent Protein Kinases”.
